Patent publication US20130177919
Changes are numbered by the printed parent chain.

Legend:
[1] = molecular target: T1, recombinant GST-Flag-CERT-S132A(1-138) fusion protein from E. coli
T1 chain: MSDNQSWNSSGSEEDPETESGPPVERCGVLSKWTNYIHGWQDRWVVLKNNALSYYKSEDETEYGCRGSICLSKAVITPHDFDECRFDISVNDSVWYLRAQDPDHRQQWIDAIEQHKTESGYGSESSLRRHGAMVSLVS

[2] = molecular target: T2, recombinant GST-Flag-CERT(1-138) wild type fusion protein from E. coli
T2 chain: T1 chain with A132S

B1: purified PKD1 (protein)
chain: MSAPPVLRPPSPLLPVAAAAAAAAAALVPGSGPGPAPFLAPVAAPVGGISFHLQIGLSREPVLLLQDSSGDYSLAHVREMACSIVDQKFPECGFYGMYDKILLFRHDPTSENILQLVKAASDIQEGDLIEVVLSASATFEDFQIRPHALFVHSYRAPAFCDHCGEMLWGLVRQGLKCEGCGLNYHKRCAFKIPNNCSGVRRRRLSNVSLTGVSTIRTSSAELSTSAPDEPLLQKSPSESFIGREKRSNSQSYIGRPIHLDKILMSKVKVPHTFVIHSYTRPTVCQYCKKLLKGLFRQGLQCKDCRFNCHKRCAPKVPNNCLGEVTINGDLLSPGAESDVVMEEGSDDNDSERNSGLMDDMEEAMVQDAEMAMAECQNDSGEMQDPDPDHEDANRTISPSTSNNIPLMRVVQSVKHTKRKSSTVMKEGWMVHYTSKDTLRKRHYWRLDSKCITLFQNDTGSRYYKEIPLSEILSLEPVKTSALIPNGANPHCFEITTANVVYYVGENVVNPSSPSPNNSVLTSGVGADVARMWEIAIQHALMPVIPKGSSVGTGTNLHRDISVSISVSNCQIQENVDISTVYQIFPDEVLGSGQFGIVYGGKHRKTGRDVAIKIIDKLRFPTKQESQLRNEVAILQNLHHPGVVNLECMFETPERVFVVMEKLHGDMLEMILSSEKGRLPEHITKFLITQILVALRHLHFKNIVHCDLKPENVLLASADPFPQVKLCDFGFARIIGEKSFRRSVVGTPAYLAPEVLRNKGYNRSLDMWSVGVIIYVSLSGTFPFNEDEDIHDQIQNAAFMYPPNPWKEISHEAIDLINNLLQVKMRKRYSVDKTLSHPWLQDYQTWLDLRELECKIGERYITHESDDLRWEKYAGEQGLQYPTHLINPSASHSDTPETEETEMKALGERVSIL
incorporation of radioactivity ([γ-32P]-ATP, in vitro kinase assay) [1]: This is significantly impaired in the case of the CERT-S132A fusion protein
incorporation of radioactivity ([γ-32P]-ATP, in vitro kinase assay) [2]: incorporation of radioactivity is detected
